{
  "source": "FireProtDB (doi:10.1021/bi00177a023)",
  "conditions": "Aspergillus oryzae (strain ATCC 42149 / RIB 40), Thermal, DSC, NaCl 80 mM, reversible: yes, whole UniProt chain shown",
  "key": {"[1]": {"conditions": "pH 6, Sodium cacodylate-HCl 10 mM"}, "[2]": {"conditions": "pH 6.5, Sodium cacodylate-HCl 10 mM"}, "[3]": {"conditions": "pH 7, Sodium cacodylate-HCl 10 mM"}, "[4]": {"conditions": "pH 8.6, Sodium borate-HCl 10 mM"}},
  "data": [
    {"protein": "Guanyl-specific ribonuclease T1 wild type, P00651 (protein) MMYSKLLTLTTLLLPTALALPSLVERACDYTCGSNCYSSSDVSTAQAAGYQLHEDGETVGSNSYPHKYNNYEGFDFSVSSPYYEWPILSSGDVYSGGSPGADRVVFNENNQLAGVITHTGASGNNFVECT", "values": [
      {"measurement": "Tm", "setting": "pH 5, Sodium acetate 10 mM", "value": 58.8, "unit": "°C"},
      {"measurement": "heat capacity change of unfolding", "setting": "pH 5, Sodium acetate 10 mM", "value": 0.89, "unit": "kcal/mol/K"},
      {"measurement": "unfolding enthalpy (calorimetric)", "setting": "pH 5, Sodium acetate 10 mM", "value": 112, "unit": "kcal/mol"},
      {"measurement": "unfolding enthalpy (van 't Hoff)", "setting": "pH 5, Sodium acetate 10 mM", "value": 115, "unit": "kcal/mol"},
      {"measurement": "Tm", "setting": "[1]", "value": 54.1, "unit": "°C"},
      {"measurement": "heat capacity change of unfolding", "setting": "[1]", "value": 1.28, "unit": "kcal/mol/K"},
      {"measurement": "unfolding enthalpy (calorimetric)", "setting": "[1]", "value": 111, "unit": "kcal/mol"},
      {"measurement": "unfolding enthalpy (van 't Hoff)", "setting": "[1]", "value": 110, "unit": "kcal/mol"},
      {"measurement": "Tm", "setting": "[2]", "value": 50.9, "unit": "°C"},
      {"measurement": "heat capacity change of unfolding", "setting": "[2]", "value": 1.23, "unit": "kcal/mol/K"},
      {"measurement": "unfolding enthalpy (calorimetric)", "setting": "[2]", "value": 106, "unit": "kcal/mol"},
      {"measurement": "unfolding enthalpy (van 't Hoff)", "setting": "[2]", "value": 112, "unit": "kcal/mol"},
      {"measurement": "Tm", "setting": "[3]", "value": 48.8, "unit": "°C"},
      {"measurement": "heat capacity change of unfolding", "setting": "[3]", "value": 1.21, "unit": "kcal/mol/K"},
      {"measurement": "unfolding enthalpy (calorimetric)", "setting": "[3]", "value": 108, "unit": "kcal/mol"},
      {"measurement": "unfolding enthalpy (van 't Hoff)", "setting": "[3]", "value": 108, "unit": "kcal/mol"},
      {"measurement": "Tm", "setting": "[4]", "value": 43.4, "unit": "°C"},
      {"measurement": "heat capacity change of unfolding", "setting": "[4]", "value": 1.2, "unit": "kcal/mol/K"},
      {"measurement": "unfolding enthalpy (calorimetric)", "setting": "[4]", "value": 94.7, "unit": "kcal/mol"},
      {"measurement": "unfolding enthalpy (van 't Hoff)", "setting": "[4]", "value": 109, "unit": "kcal/mol"},
      {"measurement": "Tm", "setting": "pH 9.7, glycine-NaOH 10 mM", "value": 40.7, "unit": "°C"},
      {"measurement": "heat capacity change of unfolding", "setting": "pH 9.7, glycine-NaOH 10 mM", "value": 1.22, "unit": "kcal/mol/K"},
      {"measurement": "unfolding enthalpy (calorimetric)", "setting": "pH 9.7, glycine-NaOH 10 mM", "value": 79.7, "unit": "kcal/mol"},
      {"measurement": "unfolding enthalpy (van 't Hoff)", "setting": "pH 9.7, glycine-NaOH 10 mM", "value": 102, "unit": "kcal/mol"}
    ]}
  ]
}
